This note sets out measurements from patent US20240425603A1.

In test [1] the target is Recombinant mouse VEGFR1-Fc (R&D Systems) (mouse) (UniProt P35969). Put plainly: MSD ECL competition on plate-bound mouse VEGFR1-Fc; competitor biotin PlGF (2 nM).
The target in test [2] is human VEGFR2, over-expressed on HEK293 cells (human) (UniProt P35968). Put plainly: flow cytometry, HEK cells over-expressing human VEGFR2.
The target of test [3] is human VEGFR3, over-expressed on K562 cells (human) (UniProt P35916). Briefly: flow cytometry, K562 cells over-expressing human VEGFR3. For orientation: A flow cytometer gives signals particle by particle.
human VEGFR3, over-expressed on K562 cells (human), sequence (P35916 25-1363): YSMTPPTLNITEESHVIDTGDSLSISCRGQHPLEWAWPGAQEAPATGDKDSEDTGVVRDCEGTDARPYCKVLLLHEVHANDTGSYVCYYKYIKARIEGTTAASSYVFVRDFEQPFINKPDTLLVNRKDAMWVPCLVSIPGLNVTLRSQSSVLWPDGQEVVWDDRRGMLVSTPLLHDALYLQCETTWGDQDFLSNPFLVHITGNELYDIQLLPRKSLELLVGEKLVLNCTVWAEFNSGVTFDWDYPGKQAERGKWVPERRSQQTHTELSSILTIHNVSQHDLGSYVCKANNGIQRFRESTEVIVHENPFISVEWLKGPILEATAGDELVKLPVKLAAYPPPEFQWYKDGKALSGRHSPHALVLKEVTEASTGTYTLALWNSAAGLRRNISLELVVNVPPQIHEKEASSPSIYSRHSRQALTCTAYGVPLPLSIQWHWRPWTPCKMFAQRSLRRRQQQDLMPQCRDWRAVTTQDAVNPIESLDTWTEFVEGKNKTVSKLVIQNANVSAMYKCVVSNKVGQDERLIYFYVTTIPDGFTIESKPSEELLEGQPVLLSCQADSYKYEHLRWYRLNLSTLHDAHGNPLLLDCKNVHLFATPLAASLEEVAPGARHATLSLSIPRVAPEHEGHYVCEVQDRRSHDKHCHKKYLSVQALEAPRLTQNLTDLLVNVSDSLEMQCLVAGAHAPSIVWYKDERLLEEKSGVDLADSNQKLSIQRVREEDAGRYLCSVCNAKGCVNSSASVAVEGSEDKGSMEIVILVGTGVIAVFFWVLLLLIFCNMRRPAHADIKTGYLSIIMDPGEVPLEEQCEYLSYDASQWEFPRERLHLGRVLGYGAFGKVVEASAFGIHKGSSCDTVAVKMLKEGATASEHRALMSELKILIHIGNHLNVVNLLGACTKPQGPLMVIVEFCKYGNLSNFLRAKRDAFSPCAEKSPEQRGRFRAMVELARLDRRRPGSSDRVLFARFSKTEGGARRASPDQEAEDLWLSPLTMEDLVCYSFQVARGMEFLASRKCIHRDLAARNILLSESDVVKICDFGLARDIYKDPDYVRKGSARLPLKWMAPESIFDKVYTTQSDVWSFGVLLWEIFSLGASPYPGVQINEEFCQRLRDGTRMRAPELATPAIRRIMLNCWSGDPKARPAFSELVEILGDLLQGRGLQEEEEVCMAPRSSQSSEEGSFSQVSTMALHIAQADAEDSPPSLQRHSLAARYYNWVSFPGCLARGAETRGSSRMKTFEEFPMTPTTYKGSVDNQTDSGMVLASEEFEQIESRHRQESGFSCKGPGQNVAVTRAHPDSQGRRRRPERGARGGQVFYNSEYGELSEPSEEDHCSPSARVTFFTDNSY

Recombinant mouse VEGFR1-Fc (R&D Systems) (mouse), sequence (P35969 27-759 limits assumed): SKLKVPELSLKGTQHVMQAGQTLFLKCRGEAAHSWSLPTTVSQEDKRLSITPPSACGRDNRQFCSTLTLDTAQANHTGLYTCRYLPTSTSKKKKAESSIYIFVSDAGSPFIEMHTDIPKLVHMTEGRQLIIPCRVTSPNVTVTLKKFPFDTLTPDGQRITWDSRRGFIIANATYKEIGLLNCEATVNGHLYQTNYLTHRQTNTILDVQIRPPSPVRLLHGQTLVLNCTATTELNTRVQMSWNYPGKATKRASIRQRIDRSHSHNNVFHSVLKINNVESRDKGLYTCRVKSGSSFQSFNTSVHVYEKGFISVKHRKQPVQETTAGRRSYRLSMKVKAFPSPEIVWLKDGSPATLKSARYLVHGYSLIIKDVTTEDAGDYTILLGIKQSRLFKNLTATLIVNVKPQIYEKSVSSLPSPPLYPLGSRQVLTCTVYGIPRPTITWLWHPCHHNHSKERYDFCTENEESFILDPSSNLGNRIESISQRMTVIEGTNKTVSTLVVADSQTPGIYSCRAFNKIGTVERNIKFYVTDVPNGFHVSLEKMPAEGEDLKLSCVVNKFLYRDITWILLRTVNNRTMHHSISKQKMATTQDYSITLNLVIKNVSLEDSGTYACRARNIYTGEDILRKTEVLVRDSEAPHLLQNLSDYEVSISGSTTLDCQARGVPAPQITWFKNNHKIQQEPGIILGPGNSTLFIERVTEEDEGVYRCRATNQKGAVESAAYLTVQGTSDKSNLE
human VEGFR2, over-expressed on HEK293 cells (human), sequence (P35968 20-1356): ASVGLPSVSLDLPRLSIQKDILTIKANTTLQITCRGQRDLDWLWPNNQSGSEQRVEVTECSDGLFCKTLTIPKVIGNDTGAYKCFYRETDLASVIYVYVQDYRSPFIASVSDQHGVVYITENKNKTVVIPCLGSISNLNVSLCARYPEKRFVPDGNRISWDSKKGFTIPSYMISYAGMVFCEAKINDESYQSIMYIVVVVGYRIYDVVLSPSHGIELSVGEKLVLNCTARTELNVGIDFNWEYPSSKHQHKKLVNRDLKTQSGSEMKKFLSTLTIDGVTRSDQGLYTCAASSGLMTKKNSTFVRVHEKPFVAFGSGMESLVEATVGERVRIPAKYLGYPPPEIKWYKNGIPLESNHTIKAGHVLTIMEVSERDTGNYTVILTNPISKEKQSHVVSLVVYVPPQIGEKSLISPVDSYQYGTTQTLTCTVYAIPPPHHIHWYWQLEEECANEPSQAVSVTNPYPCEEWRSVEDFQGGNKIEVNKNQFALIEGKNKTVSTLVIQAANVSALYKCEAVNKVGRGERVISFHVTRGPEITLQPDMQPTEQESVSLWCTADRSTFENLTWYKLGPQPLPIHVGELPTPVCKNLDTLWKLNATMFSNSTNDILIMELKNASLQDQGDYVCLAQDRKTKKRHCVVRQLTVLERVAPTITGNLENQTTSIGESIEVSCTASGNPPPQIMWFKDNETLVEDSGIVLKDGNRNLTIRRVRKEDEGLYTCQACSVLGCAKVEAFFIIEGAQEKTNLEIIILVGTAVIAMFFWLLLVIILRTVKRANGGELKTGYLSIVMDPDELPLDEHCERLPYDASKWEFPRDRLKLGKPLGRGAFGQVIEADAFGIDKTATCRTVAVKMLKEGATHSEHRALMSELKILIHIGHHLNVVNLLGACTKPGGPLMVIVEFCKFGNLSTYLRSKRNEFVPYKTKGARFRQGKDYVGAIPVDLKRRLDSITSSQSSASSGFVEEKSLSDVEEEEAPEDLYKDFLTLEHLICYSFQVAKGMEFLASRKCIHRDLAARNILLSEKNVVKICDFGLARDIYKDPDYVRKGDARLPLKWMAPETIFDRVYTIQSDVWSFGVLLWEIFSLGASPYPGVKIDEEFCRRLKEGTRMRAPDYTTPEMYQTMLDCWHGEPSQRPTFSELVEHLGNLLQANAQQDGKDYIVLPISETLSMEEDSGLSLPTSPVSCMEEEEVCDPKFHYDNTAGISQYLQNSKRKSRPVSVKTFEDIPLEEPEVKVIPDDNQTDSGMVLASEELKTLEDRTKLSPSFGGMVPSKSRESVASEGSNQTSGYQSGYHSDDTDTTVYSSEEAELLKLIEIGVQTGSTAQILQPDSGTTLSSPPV

As to PlGF as used on mouse VEGFR1 (ligand), in test [1], the IC50 worked out at 0.163 nM and the Max % Inh. came to 100%. On to “Goat anti-human VEGFR2 (R&D Systems Catalog #AF357) (antibody)”, for which the Geomean over-expressing/Geomean parental (Fold Signal/Background) in test [2] was 28 fold.

For the substance “Goat anti-human VEGFR3 (R&D Systems Catalog #AF349) (antibody)”, the Geomean over-expressing/Geomean parental (Fold Signal/Background) in test [3] was found to be 132 fold.

As usually defined, the IC50 is the concentration needed to halve the response being measured.
